From PMC7926355, “Mutation of GGMP Repeat Segments of Plasmodium falciparum Hsp70-1 Compromises Chaperone Function and Hop Co-Chaperone Binding” (International Journal of Molecular Sciences, 2021)

Columns and labels:
Assay in all cases: SPR
Conditions in all cases: both partners purified
PfHsp70-1_(G632) = PfHsp70-1_(G632) (Plasmodium falciparum 3D7, UniProt Q8IB24 1-677, 632GGMPGGMP639 to 632AALAAALA639)
PfHsp70-1_(G648) = PfHsp70-1_(G648) (Plasmodium falciparum 3D7, UniProt Q8IB24 1-677, 648[…]657 to 648[…]657)
PfHsp70-1_(G632-664) = PfHsp70-1_(G632-664) (Plasmodium falciparum 3D7, UniProt Q8IB24 1-677, 632[…]664 to 632[…]664)
[1] = target: T1, Plasmodium falciparum Hsp70-1 (PfHsp70-1), wild type (Plasmodium falciparum 3D7, UniProt Q8IB24 1-677)
T1 construct: PfHsp70-1, cytosolic Hsp70 of Plasmodium falciparum 3D7, NCBI XP_001349336.1; called the full length PfHsp70-1 protein; pQE30 vector with N-terminal (His)6-tag; also called WT; wild type PfHsp70-1

PfHsp70-1∆G = PfHsp70-1∆G (Plasmodium falciparum 3D7, UniProt Q8IB24 1-677, deletion of residues 632-664)

Measured: binding result

B1: Plasmodium falciparum Hsp70-Hsp90 organising protein (PfHop) (natural protein, UniProt Q8ILC1 1-564, looked up)
chain: MVNKEEAQRLKELGNKCFQEGKYEEAVKYFSDAITNDPLDHVLYSNLSGAFASLGRFYEALESANKCISIKKDWPKGYIRKGCAEHGLRQLSNAEKTYLEGLKIDPNNKSLQDALSKVRNENMLENAQLIAHLNNIIENDPQLKSYKEENSNYPHELLNTIKSINSNPMNIRIILSTCHPKISEGVEKFFGFKFTGEGNDAEERQRQQREEEERRKKKEEEERKKKEEEEMKKQNRTPEQIQGDEHKLKGNEFYKQKKFDEALKEYEEAIQINPNDIMYHYNKAAVHIEMKNYDKAVETCLYAIENRYNFKAEFIQVAKLYNRLAISYINMKKYDLAIEAYRKSLVEDNNRATRNALKELERRKEKEEKEAYIDPDKAEEHKNKGNEYFKNNDFPNAKKEYDEAIRRNPNDAKLYSNRAAALTKLIEYPSALEDVMKAIELDPTFVKAYSRKGNLHFFMKDYYKALQAYNKGLELDPNNKECLEGYQRCAFKIDEMSKSEKVDEEQFKKSMADPEIQQIISDPQFQIILQKLNENPNSISEYIKDPKIFNGLQKLIAAGILKVR
notes: PfHop, Hsp70-Hsp90 organising protein of Plasmodium falciparum
binds: PfHsp70-1_(G632) | PfHsp70-1_(G648) | PfHsp70-1_(G632-664) | [1] | PfHsp70-1∆G
